Experimental findings from PMC2175169 (The Journal of Cell Biology, 2000) are described below.

The assay concerns the target authentic E1A 243R protein, purified from bacteria (adenovirus, UniProt P03255-2 1-243). As to the kind of experiment: pull-down.

B1: GST-p21 Δ1-80 (domain or fragment)
chain: TGPRRGRDELGGGRRPGTSPALLQGTAEEDHVDLSLSCTLVPRSGEQAEGSPGGPGDSQGRKRRQTSMTDFYHSKRRLIFSKRKP
As for B1, the binding result is listed as “binds”.
